Source: patent US20160144003A1 (Scripps Research, published 2016)

Tests used:
[1] = target: T1, human GlyRS L129P mutant (human, UniProt P41250 55-739); assay: bio-layer interferometry (Octet RED), NRP1-Fc on Protein G biosensors, global 1:1 fit of five concentrations
T1 construct: also called L129P GlyRS; L129P-His; not shown: His tag
T1 sequence: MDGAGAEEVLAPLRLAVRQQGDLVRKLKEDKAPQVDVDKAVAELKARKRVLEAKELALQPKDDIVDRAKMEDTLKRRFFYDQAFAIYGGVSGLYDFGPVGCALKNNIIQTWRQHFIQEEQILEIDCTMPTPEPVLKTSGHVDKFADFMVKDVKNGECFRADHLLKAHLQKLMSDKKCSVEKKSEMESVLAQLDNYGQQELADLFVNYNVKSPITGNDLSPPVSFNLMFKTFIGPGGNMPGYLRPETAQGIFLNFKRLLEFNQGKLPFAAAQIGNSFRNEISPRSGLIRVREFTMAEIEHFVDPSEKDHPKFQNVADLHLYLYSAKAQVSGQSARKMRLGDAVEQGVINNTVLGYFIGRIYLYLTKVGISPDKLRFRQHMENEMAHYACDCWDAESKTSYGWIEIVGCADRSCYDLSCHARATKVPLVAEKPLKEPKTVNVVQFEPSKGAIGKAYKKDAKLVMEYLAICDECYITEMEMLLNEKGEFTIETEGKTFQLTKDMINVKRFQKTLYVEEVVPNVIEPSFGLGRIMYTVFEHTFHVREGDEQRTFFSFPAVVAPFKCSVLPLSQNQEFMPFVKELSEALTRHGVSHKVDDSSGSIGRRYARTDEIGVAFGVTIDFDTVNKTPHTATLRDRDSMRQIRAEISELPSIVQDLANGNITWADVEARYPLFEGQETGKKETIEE
Procedure: FIGS. 15A-15C show the binding affinity between various GlyRS polypeptides and neuropilin-1 (NRP-1). In FIG. 15A, the binding between NRP-1 and GlyRS (wild-type (WT), CMT-associated mutant L129P, and CMT-associated mutant P234KY) at 1 μM was compared by bio-layer interferometry in Octet RED system. No binding was detected between NRP-1 and WT GlyRS, but strong binding was detected between NRP-1 and each of the CMT-associated mutants L129P and P234KY.
The binding constants between GlyRS CMT mutants (L129P and P234KY) and Neuropilin-1 (NRP1) were measured using Octet RED (ForteBio, Inc.). Octet RED utilizes bio-layer interferometry (BLI) technology that enables real-time analysis of protein-protein interactions on the surface of a fiber optic biosensor. The protein of interest is firstly immobilized on the biosensor and then exposed to the protein analyte in solution. The binding of two proteins changes the optical properties of the biosensor, leading to a shift in the wavelength of reflected light. This shift in wavelength allows the measurement of the determination of the binding constant.

[2] = target: T2, human GlyRS P234KY mutant (human, UniProt P41250 55-739); assay: bio-layer interferometry (Octet RED), NRP1-Fc on Protein G biosensors, global 1:1 fit of three concentrations
T2 sequence: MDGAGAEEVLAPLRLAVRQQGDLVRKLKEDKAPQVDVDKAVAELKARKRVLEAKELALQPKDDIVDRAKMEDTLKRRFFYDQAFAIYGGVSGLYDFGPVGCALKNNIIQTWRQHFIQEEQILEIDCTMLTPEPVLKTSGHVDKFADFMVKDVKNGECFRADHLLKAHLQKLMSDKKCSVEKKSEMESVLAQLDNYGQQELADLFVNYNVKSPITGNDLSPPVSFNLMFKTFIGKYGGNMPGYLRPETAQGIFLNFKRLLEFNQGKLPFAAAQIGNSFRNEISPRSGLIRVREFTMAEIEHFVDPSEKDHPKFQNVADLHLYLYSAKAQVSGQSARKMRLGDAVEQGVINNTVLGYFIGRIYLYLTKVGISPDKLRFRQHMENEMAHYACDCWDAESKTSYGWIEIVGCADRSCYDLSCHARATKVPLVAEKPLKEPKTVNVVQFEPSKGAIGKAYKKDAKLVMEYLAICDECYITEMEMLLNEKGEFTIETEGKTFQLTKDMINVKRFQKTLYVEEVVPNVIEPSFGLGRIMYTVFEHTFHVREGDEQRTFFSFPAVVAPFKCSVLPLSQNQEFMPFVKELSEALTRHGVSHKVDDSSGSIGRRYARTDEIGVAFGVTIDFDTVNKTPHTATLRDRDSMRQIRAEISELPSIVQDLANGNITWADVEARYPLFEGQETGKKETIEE

B1: recombinant neuropilin-1/Fc extracellular domain chimeric protein (R&D systems) (Fc fusion)
chain: FRSDKCGGTIKIENPGYLTSPGYPHSYHPSEKCEWLIQAPEPYQRIMINFNPHFDLEDRDCKYDYVEVIDGENEGGRLWGKFCGKIAPSPVVSSGPFLFIKFVSDYETHGAGFSIRYEIFKRGPECSQNYTAPTGVIKSPGFPEKYPNSLECTYIIFAPKMSEIILEFESFDLEQDSNPPGGVFCRYDRLEIWDGFPEVGPHIGRYCGQKTPGRIRSSSGILSMVFYTDSAIAKEGFSANYSVLQSSISEDFKCMEALGMESGEIHSDQITASSQYGTNWSVERSRLNYPENGWTPGEDSYREWIQVDLGLLRFVTAVGTQGAISKETKKKYYVKTYRVDISSNGEDWITLKEGNKAIIFQGNTNPTDVVFGVFPKPLITRFVRIKPASWETGISMRFEVYGCKITDYPCSGMLGMVSGLISDSQITASNQGDRNWMPENIRLVTSRTGWALPPSPHPYINEWLQVDLGDEKIVRGVIIQGGKHRENKVFMRKFKIAYSNNGSDWKMIMDDSKRKAKSFEGNNNYDTPELRAFTPLSTRFIRIYPERATHSGLGLRMELLGCEVEVPTAGPTTPNGNPVDECDDDQANCHSGTGDDFQLTGGTTVLATEKPTIIDSTIQSEFPTYGFNCEFGWGSHKTFCHWEHDSHAQLRWRVLTSKTGPIQDHTGDGNFIYSQADENQKGKVARLVSPVVYSQSSAHCMTFWYHMSGSHVGTLRVKLHYQKPEEYDQLVWMVVGHQGDHWKEGRVLLHKSLKLYQVIFEGEIGKGNLGGIAVDDISINNHIPQEDCAKPTDLDKKNTEIKIDETGSTPGYEEGKGDKNISRKPGNVLKTLDPI
With B1 the Kd [1] was 36.8 nM and the Kd [2] was 162 nM.
